Article PMC3258144

Molecular target: Dnmt3a-C WT (mouse, UniProt O88508 608-908)
Test: fluorescence anisotropy

Chain of Dnmt3a-C WT (O88508 608-908): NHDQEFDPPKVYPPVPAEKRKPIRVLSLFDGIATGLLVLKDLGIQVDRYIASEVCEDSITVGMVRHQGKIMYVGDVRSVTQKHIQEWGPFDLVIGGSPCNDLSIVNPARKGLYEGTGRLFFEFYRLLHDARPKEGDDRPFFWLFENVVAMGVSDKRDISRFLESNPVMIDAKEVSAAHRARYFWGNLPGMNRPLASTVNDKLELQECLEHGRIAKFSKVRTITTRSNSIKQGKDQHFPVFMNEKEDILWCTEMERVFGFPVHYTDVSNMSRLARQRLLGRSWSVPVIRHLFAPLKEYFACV

B1: Non-CG-Cy5 29-mer (dsDNA)
DNA 1: ACTTGCAACAGTCCTAACATTCACCTCTT
DNA 2: AAGAGGTGAATGTTAGGACTGTTGCAAGT
B1 showed a Kd of 130 ± 12 nM.

B2: 2CG-Cy5 29-mer (dsDNA)
DNA 1: ACTTGCAACGGTCCTAACCGTCACCTCTT
DNA 2: AAGAGGTGACGGTTAGGACCGTTGCAAGT
In the case of B2, the Kd is reported as 190 ± 10 nM.
